One molecule from patent US6790824B1, “Cytokines having neurotrophic activity” (Biopharm Gesellschaft zur biotechnologischen Entwicklung …, priority 1997, dated 2004) can be followed below.

The subject of experiment [1] is chick ciliary ganglionic (CG) neurons. In words: Survival of embryonic chick ciliary ganglionic (CG) neurons, 24 h, counting of surviving neurons. Format: cell-based. The procedure:
(§1) Embryonic chick ciliary (CG), dorsal root (DRG), and sympathetic (SG) ganglia at embryonic day(s) (E) 8, 10, and 12, were dissected, freed from nerve roots and connective tissue and collected in CME. Ganglia were incubated in trypsin (ICN), washed and dissociated by trituration using fire-polished Pasteur pipettes. Cultures were set up in 96-well microtiter plates (Costar, A/2), precoated with poly-L-ornithine and laminin at a density of 1,200-1,500 cells/well in DMEM supplemented with N1 additives, 0.25% BSA, and 0.1% PSN (DME/N1) and incubated at 37° C. in a 5% CO2 incubator.
(§2) At appropriate times (CG: 24 h, DRG: 48 h, SG: 72 h) cultures were fixed by addition of 2.5% glutardialdehyde in phosphate buffered saline (PBS). Numbers of surviving neurons were determined by direct counting of 30% of the surface area using phase contrast microscopy.
Phosphatidylinositol-specific phospholipase C (PIPLC) is an enzyme that specifically cleaves glycosyl-phosphatidylinositol (GPI) linkages. Embryonic chick ciliary ganglionic neurons (E8) were isolated and seeded as described before. Neurons were incubated for 1 h at 37° C. with 1) 100 mU PIPLC or II) 100 mU PIPLC+2 ng/ml TGFβ or III) without enzyme and then growth factors were added. The number of surviving neurons was determined 24 h later.

In experiment [2] the test system is embryonic chicken dorsal root ganglia (DRG) neurons. The experiment can be described thus: Survival of dissociated embryonic chick dorsal root ganglia (DRG) neurons, 48 h, counting of surviving neurons. The format is cell-based. The following applies: E8, 10% horse serum, saturating GDNF; compared with NGF in serum-free medium.
Experiment [3] has as its system chick sympathetic ganglionic (SG) neurons. In words: Survival of embryonic chick sympathetic ganglionic (SG) neurons, 72 h, counting of surviving neurons. The format is cell-based. The protocol:
as §1, §2

The test system of experiment [4] is embryonic chicken dorsal root ganglia (DRG) neurons. The experiment can be described thus: Survival of dissociated embryonic chick dorsal root ganglia (DRG) neurons, 48 h, counting of surviving neurons. Format: cell-based. The procedure:
Dissociated cultures of embryonic chicken dorsal root ganglia (DRG) were generated as described in details by Krieglstein and Unsicker (Neurochem. Res., 21(7) (1996) 843-850). Briefly, DRGs from white Leghorn chick embryos (day 8) were dissected in Ca^2+-Mg^2+ free Hanks' balanced salt solution. After incubation in 0.08% trypsin for 15 min ganglia were dissociated by trituration. Cells were seeded in polyomithin-laminin coated 96-well microtiter plates (A/2 Costar) at a density of 1,200 cells/well. Growth factors were applied at the time of plating in a final volume of […] Dulbecco's Modified Eagle's Medium supplemented with 0.25% bovine serum albumin, N1 additives and 100 U/ml penicillin. As a positive control, nerve growth factor (NGF) was used at the saturating concentration of 5 ng/ml. After 48 h of incubation at 37° C. in a humidified atmosphere containing 5% CO2, cultures were fixed with 2.5% glutaraldehyde. Neuronal cells were identified by their phase-bright and neurite-bearing morphologies and counted within 30% of the total surface area using phase contrast microscopy. In the first set of experiments we tested the survival promoting effect of several growth factors of the bone morphogenetic protein family.
as §1, §2
Dissociated cultures of embryonic chicken dorsal root ganglia (DRGs) were generated as described in details by Krieglstein and Unsicker (Dev. Brain. Rees. 93 (1996) 10-17). Briefly, DRGs were dissected in Ca^2+-Mg^2+ free Hank's balanced salt solution (CMF). After incubation in 0.08% trypsin (BioWhittaker) for 15 min, ganglia were dissociated by gentle trituration using fire-polished Pasteur pipettes. Cells in suspension (neuron/non-neuron ratio 1:2) were seeded in polyomithin-laminin coated 96-well microtiter plates (A/2 Costar) at a density of 1,200 cells/well. Growth factors were applied at the time of plating in a final volume of 50 μl Dulbecco's Modified Eagle's Medium supplemented with 0.25% bovine serum albumin, N1 additives (Bottenstein et al., Exp. Cell Res. 125 (1980) 183-190) and 100 U/ml penicillin. As a positive control, nerve growth factor (NGF) was used at the saturating concentration of 10 ng/ml. After 48 h of incubation at 37° C. in a humidified atmosphere containing 5% CO2, cultures were fixed with 2.5% glutaraldehyde in phosphate buffered saline (PBS). Neuronal cells were identified by their phase-bright and neurite-bearing morphologies and counted within 30% of the total surface area using phase contrast microscopy. All experiments were performed in at least triplicate in two independent experiments. Data are presented as mean±SEM. Statistical comparisons were made with student's double t-test, ANOVA and MicrocalOrigin software. Differences were considered statistically significant at *P<0.05, **P<0.01, **P<0.001.

The test system of experiment [5] is rat embryonic mesencephalic dopaminergic neurons (E14). In words: Survival of rat embryonic mesencephalic dopaminergic neurons, count of tyrosine hydroxylase (TH) immunoreactive neurons after 8 days. Format: cell-based. The following applies: GDNF 10 ng/ml, TGF-β3 2 ng/ml, 8 days in culture. The procedure: FIG. 8 depicts the survival promoting effect of GDNF on rat embryonic mesencephalic dopaminergic neurons (E14) is dependent on the presence of TGF-β. Dissociated cultures were treated with GDNF (10 ng/ml), with GDNF in the presence of anti-TGF-β1, -β2, -β3 (10 μg/ml), with TGF-β3 (2 ng/ml) or without any growth factor added (control) for 8 days in culture. Numbers of dopaminergic neurons were determined by counting the numbers of tyrosine hydroxylase (TH) immunoreactive neurons.

Experiment [6] relates to preganglionic neurons to the adrenal medulla. The experiment can be described thus: Preganglionic neuron protection in vivo after adrenomedullectomy. Set-up: species or system rat. The following applies: adult rats, 1 μg GDNF in gelfoam into the medullectomized adrenal gland, four weeks. The procedure:
This type of target deprivation causes the death of all preganglionic neurons to the adrenal medulla at four weeks, as previously shown by Blottner and Baumgarten (Exp. Neurol. 118 (1992) 35-46).
Adrenomedullectomy was performed on adult male Hanover-Wistar rats. Preganglionic neurons in the spinal cord innervating adrenal medullary chomaffin cells were identified by retrograde tracing with Fast Blue or Fluoro-Gold (FG). Factors (1 μg each) were soaked in gelfoam (Spongostan, Ferrosan, Soeburg, Denmark) prior to implantation into unilaterally medullectomized adrenal glands. Numbers of FG-labeled preganglionic neurons were determined by cell counts of complete series of longitudinal sections through spinal cord segments T7-T10 four weeks post-surgery. Only brightly fluorescent neurons containing a clearly visible nucleus were counted. Total numbers were corrected for possible double counts of split nuclei according to Abercombie's formula. Numbers of preganglionic neurons to the adrenal medulla surviving in sham-operated animals and on the unlesioned side were set as 100%. Data are given as mean values±SEM and the statistical significance of intergroup differences was determined by Student's t-test.

[7] abbreviates: E8, serum-free, factor added by itself.

B1: GDNF: rh GDNF, neurotrophic factor, member of the TGF-β superfamily (protein, UniProt P39905 78-211, looked up)
Glial cell line-derived …: SPDKQMAVLPRRERNRQAAAANPENSRGKGRRGQRGKNRGCVLTAIHLNVTDLGLGYETKEELIFRYCSGSCDAAETTYDKILKNLSRNRRLVSDKVGQACCRPIAFDDDLSFLDDNLVYHILRKHSAKRCGCI
As for B1, in experiment [1] (E8, 24 h, compared with CNTF 5 ng/ml), the “CG neuron survival with GDNF supplemented with 10% horse serum” value is given as “as effectively as a saturating concentration of CNTF”. Also, the “EC50 of the synergistic survival effect” value in experiment [1] (factor titrated in combination with 2 ng/ml of the other factor (GDNF/TGF-β), serum-free) turned out to be 60 pg/mL. The “CG neuron survival, single factor in fully-defined medium” value in experiment [1] (serum-free, each at the saturating amount of 2 ng/ml) was “only marginal survival promoting effects”. Moreover, in experiment [2], the “DRG neuron survival with GDNF in serum containing medium” value is listed as “levels identical to those achieved by addition of the respective neurotrophic factor”. Also, the “SG neuron survival with GDNF in serum containing medium” value in experiment [3] (E8, 10% horse serum, saturating GDNF, compared with NGF in serum-free medium) is recorded as “levels identical to those achieved by addition of the respective neurotrophic factor”. Also, the “SG neuron survival, single factor in serum-free medium” value in experiment [3] (setting [7]) is “virtually no survival promoting effect”. Also, in experiment [4] (setting [7]), the “DRG neuron survival, single factor in serum-free medium” value was “virtually no survival promoting effect”. Moreover, the “effect on DRG neuron survival when added together with GDF-5” value in experiment [4] (factor at saturating concentration plus GDF-5 20 ng/ml, E8, 48 h) is “synergistic or additive effects”. In addition, in experiment [5], the “survival of dopaminergic neurons relative to untreated control cultures” value is reported as 160%. Further, the “protection of preganglionic neurons after adrenomedullectomy” value in experiment [6] is reported as “fully protected the neurons”.
